Test results: US9125872B2, “Polyethylene glycol aerogels for targeted delivery of pharmaceutical drubs” (priority 2009, dated 2015)

Tests used:
Assay type in all cases: physicochemical
[1] = Solubility of purified solid protein-PEG conjugates in water
[2] = Sequential time release of BSA encapsulated in PEG aerogel in distilled water (UV-spectroscopy); settings: room temperature
Procedure: As an example of encapsulation and release of pharmaceutical biologics, release tests conducted using one sample weighing 13 mg PEG aerogel encapsulating 1 mg BSA protein in 10 ml distilled water at room temperature. Small solution samples were withdrawn at indicated time intervals above for BSA analysis with UV-spectroscopy at 280 and 260 nm wavelength. Results are calculated and tabulated.

[3] = Drug loading and biologics encapsulation in PEG aerogel granules
Procedure: To 1 gram PEG [MW=2,000,000] dissolved in 100 ml anhydrous toluene, 100 mg [0.1 gram] BSA powder is dispersed and the mixture was stirred at 38-45° C. for 30-60 minutes to allow coating/adsorption of soluble PEG molecules on solid BSA particles. 0.2 g benzoyl peroxide was heated in 15 ml anhydrous toluene at 85° C. for 10 minutes. After cooling to 76° C., the catalyst solution was added to the warm PEG-BSA suspension at 38° C., which raised the temperature to 43° C., and mixing was continued for 15 minutes. The solution was poured into a mold and stored in a glove box. Toluene was later removed from the gel by solvent extraction with supercritical carbon dioxide fluid to obtain dry solid aerogel encapsulating BSA fine particles.
5 ml (=2.6 g) granules from PEG aerogel #2 (2009 cold preparation) were desiccated overnight to remove any absorbed vapors during storage.
Gemzar [Eli Lilly, Indiana] solution was made by dissolving 200 mg Gemcitabine HCl in 5 ml 0.9% NaCl [sodium chloride] aqueous solution. 2.3 ml (0.61 g) PEG aerogel #1 [“hot” preparation, 2009] granules were desiccated overnight to remove any absorbed vapors during storage. […] The mixture was placed in a desiccator to remove excess water and render dry loaded aerogel granules.
BSA protein (MW=66,000) was used as an example of large biologic molecules to be encapsulated in PEG aerogel during the gelation process. The encapsulation method is described in the aerogel preparation section.

[4] = of the PEG aerogel granules carrying the drug/biologic

BSA-PEG-N: BSA linked to aerogel of PEG + Bis(3-aminopropyl) terminated PEG 1,500/2,100
Solubility in Water ([1]; Body Temperature (37° C.)): No | Solubility in Water ([1]; Room Temperature (23° C.)): No

BSA-PEG-O: BSA linked to aerogel of PEG + Diglycidylether terminated PEG, 1000
Solubility in Water ([1]; Body Temperature (37° C.)): No | Solubility in Water ([1]; Room Temperature (23° C.)): No

BSA-PEG: BSA surface-linked via EDC to PEG only aerogel
Solubility in Water ([1]; Body Temperature (37° C.)): No | Solubility in Water ([1]; Body Temperature (37° C.), listed as aerogel-BSA “conjugate”): water insoluble | Solubility in Water ([1]; Room Temperature (23° C.)): No

bovine serum albumin [BSA Protein]
Released BSA ([2]; 15 minutes, 13 mg PEG aerogel with 1 mg BSA in 10 ml distilled water): 0.19 mg | Cumulative Percent Release ([2]; 15 minutes, distilled water): 19 % of 1 mg | Cumulative Release ([2]; 15 minutes, distilled water): 0.19 mg | Released BSA ([2]; 3 hours (increment), distilled water): 0.22 mg | Cumulative Percent Release ([2]; 3 hours, distilled water): 41 % of 1 mg | Cumulative Release ([2]; 3 hours, distilled water): 0.41 mg | Released BSA ([2]; 20 hours (increment), distilled water): 0.26 mg | Cumulative Percent Release ([2]; 20 hours, distilled water): 67 % of 1 mg | Cumulative Release ([2]; 20 hours, distilled water): 0.67 mg | Aerogel Density [3, 4]: 0.30 g/cc | Aerogel Porosity [3, 4]: 75% vol % | Loading/Encapsulation ([3]; weight of solution (or BSA) per g PEG aerogel): 77 mg/g Aerogel | Loading/Encapsulation ([3]; weight of solution (or BSA) per ml PEG aerogel): 23 mg/ml Aerogel
